“Also recorded” adds a separate entry of the source.
Key:
GP73 peptide: […] = target: T1, GP73 peptide: […] (Homo sapiens, UniProt Q8NBJ4); experiment: Biacore surface plasmon resonance, data fit for 1:1 binding; conditions: Biacore 1:1 binding fit, GP73 peptide SSRSVDLQTRIMELEGRVRR
T1 construct: GP73 peptide: […]
Experimental: In one embodiment, Kd is measured using surface plasmon resonance assays using a BIACORE®-2000 or a BIACORE®-3000 (BIAcore, Inc., Piscataway, N.J.) at 25° C. with immobilized antigen CM5 chips at […] response units (RU). Briefly, carboxymethylated dextran biosensor chips (CM5, BIACORE, Inc.) are activated with N-ethyl-N′-(3-dimethylaminopropyl) carbodiimide hydrochloride (EDC) and N-hydroxysuccinimide (NHS) according to the supplier's instructions. Antigen is diluted with 10 mM sodium acetate, pH 4.8, to 5 μg/ml (−0.2 μM) before injection at a flow rate of 5 μl/minute to achieve approximately 10 response units (RU) of coupled protein. Following the injection of antigen, 1 M ethanolamine is injected to block unreacted groups. For kinetics measurements, two-fold serial dilutions of antibody (0.58 nM to 200 nM) are injected in PBS with 0.05% polysorbate 20 (TWEEN-20™) surfactant (PEST) at 25° C. at a flow rate of approximately 25 μl/min. Association rates (kon) and dissociation rates (koff) are calculated using a simple one-to-one Langmuir binding model (BIACORE® T100 Evaluation Software) by simultaneously fitting the association and dissociation sensorgrams. The equilibrium dissociation constant (Kd) is calculated as the ratio koff/kon. See, e.g., Chen et al., J. Mol. Biol. 293:865-881 (1999). If the on-rate exceeds […] s^−1 by the surface plasmon resonance assay above, then the on-rate can be determined by using a fluorescent quenching technique that measures the increase or decrease in fluorescence emission intensity (excitation=295 nm; emission=340 nm, 16 nm band-pass) at 25° C. of a 20 nM anti-antigen antibody in PBS, pH 7.2, in the presence of increasing concentrations of antigen as measured in a spectrometer, such as a stop-flow equipped spectrophometer (Aviv Instruments) or a 8000-series SLM-AMINCO™ spectrophotometer (ThermoSpectronic) with a stirred cuvette.

peptide AA 36-55 of GP73 = peptide AA 36-55 of GP73 (Homo sapiens, UniProt Q8NBJ4); experiment: pH dependent peptide ELISA; type: binding; conditions: pH range of 7.4 to 5.4
Experimental: A peptide ELISA was performed to test for pH dependency of binding to peptide AA 36-55 of GP73.
ELISA was carried out in 96 well plates coated overnight with biotinylated peptide and blocked with 2% gelatine. Horse radish peroxidase labeled antibodies G2-1 (G2-1-HRP) or G2-2 (G2-2-HRP) were applied and incubated for 1.5 hours. For competition testing non labeled G2-1 or G2-2 was added at high concentration. For pH dependent binding the antibodies were applied in phosphate buffer pH 4.4, 5.4, 6.4 or 7.4. After extensive washing a chromogenic substrate (TMB Amersham) was added to detect peroxidase. The reaction was stopped and absorbance was read at 450 nm.

HuH7 cells = experiment: Internalization of pHrodo Green labeled antibodies after pre-incubation with conditioned media containing soluble GP73; type: cell-based, human; conditions: 10 ug/ml pHrodo Green labeled antibody pre-incubated over night, 24 h at 37° C.
Experimental: Antibody internalization was measured by FACS using the pH-sensitive dye pHrodo Green coupled to each antibody. […] The internalization of G2-2 that binds to rGP73 is not altered as described in Example 6.
Labeled antibodies were purified by size exclusion (40K MWCO). A non binding Isotype Antibody that was not labeled with pHrodo® Green STP Ester (Iso.) was used as control for background fluorescence. 10 ug/ml of each antibody was pre-incubated over night at 4° C. with either fresh culture media or conditioned media. As conditioned media served either supernatant from HEK 293 or HEK 293 GP73-myc cells cultured for 72 hours, that was dialyzed (10 k MWCO) against 1 L fresh media each. To confirm the presence of secreted soluble GP73 after dialysis supernatants were analysed by Western Blot using an anti-myc antibody. 300 ul/well of each pre-incubated antibody was given to 0.6×10^6HuH7 cells growing in 24 well plates for 24 h at 37° C. and 5% CO2. Cells were washed and analysed by FACS.

[1] = test system: HuH7 (human hepatocellular carcinoma); experiment: Cell viability / proliferation with PrestoBlue reagent; type: cell-based; conditions: 0.125 mg/ml to 2 mg/ml, after 72 hrs
Experimental: FIG. 13A Proliferation of HuH7 cells (human hepatocellular carcinoma) after treatment with different antibodies. HuH7 cells were treated with G2-2, G2-2 plus Cetuximab, mG2-2, mG2-2 plus Cetuximab, Cetuximab or control antibody each in increasing concentrations from 0.125 mg/ml to 2 mg/ml. Proliferating cells were measured after 72 hrs. […] This effect was independent of the Fc part i.e. human IgG1 in G2-2 or murin IgG2a in mG2-2 as described in Example 8.
FIG. 13B Proliferation of HuH7 cells (human hepatocellular carcinoma), 4T1 cells (murin breast carcinoma) and CaCo2 cells (human colorectal carcinoma) after treatment with different antibodies. The three cell lines were treated with G2-1, G2-1 plus Cetuximab, Cetuximab, Bevacizumab or Bevacizumab plus Cetuximab 2 mg/ml total. Proliferating cells were measured after 72 hrs.
Cells from the cell lines HuH7 (human hepatocellular carcinoma), 4T1 (murin breast carcinoma) and CaCo2 (human colorectal carcinoma) were cultured under standard conditions in Dulbecco's modified Eagle Medium (DMEM) supplemented with 10% fetal calf serum (FCS) at 37° C. with 5% CO2. […] Fluorescence was read at 615 nm to quantify cell viability. […]
To test the effect of G2-1 on different cell lines, HuH7, 4T1 and CaCo2 cells were transferred to 96 well plates. […] Cell viability was quantified after 72 hours using PrestoBlue reagent and measuring the fluorescence at 615 nm.

B1: G2-2: scFv clone with human IgG1 heavy and human Igk light constant regions; VH/VL SEQ ID NO: 2 and 3; binds rGP73 AA 36-55 (antibody, V domains shown)
VH: EVQLLQSGGGVVQPGRSLRLSCAASGFTFSSYGMSWVRQAPGKGLEWVAVISYDGSNKYYADSVKGRFTISRDNSKNTLYLQMNSLRAEDTAVYYCAREGSAGMDVWGQGTTVTVSS
VL: DIQMTQPSSLSASPGASASLTCTLRSDISVGFHRIYWYQQKPGSPPQYLLRYKSDSDKQQGSGVPSRFSGSKDASANAGILLISGLQSDDEADYYCVIWHTSGVVFGGGTKVEIK
modifications: human IgG1 and Igk constant regions not cited; G2-2 heavy chain variable region (VH); G2-2 light chain variable region (VL)
- koff, measurement 1 + 2 mean (GP73 peptide: […]): 0.001108 s⁻¹
- kon, measurement 1 + 2 mean (GP73 peptide: […]): 260200 M⁻¹ s⁻¹
- Kd (GP73 peptide: […]; read-out: Kd, measurement 1 + 2 mean): 4.29 nM
- pH dependency of binding to peptide AA 36-55 of GP73 (peptide AA 36-55 of GP73): Stable binding
- effect of conditioned media containing soluble GP73 on antibody internalization / cell surface binding (HuH7 cells): unaffected; also recorded: not altered
- cell proliferation / cell viability [1]: reduced depending on antibody concentration
